“And” between values parts separate entries of the source, which are not always exact repeats. Equal values may be shown once.
B1: SZ190b = CCR5QTY(190b) (receptor)
chain: MDYQVSSPIYDINYYTSEPCQKINVKQIAARLQPPQYSQTFTFGFTGNMQTTQTQINCKRLKSMTDIYLQNQAISDQFFQQTTPYWAPYNTVQQQNTFQEFFGLNNCSSSNRLDQAMQVTETQGMTHCCTNPTIYAFVGEKFRNYLLVFFQKHIAKRFCKCCSIFQQEAPERASSVYTRSTGEQEISVGL
modifications: labelled with the dye DY647P1 in the MST assay (site not stated)
notes: Partial QTY variant of CCR5, 190 aa; Dye-labelled in MST; in the yeast 2-hybrid screen the fusion partner is not described; also called 5NA-17: Contig1; CCR5_SZ190b DY647P1
B2: SZ218a = CCR5QTY(218a) (receptor)
chain: MDYQVSSPIYDINYYTSEPCQKINVKQIAARQQPPQYSQTYTFGFTGNMQTTQTQINCKRLKSMTDIYLQNQAISDQFFQQTTPFWAHYAAAQWDFGNTMCQQQTGQYFTGYYSGTYYTTQQLNTFQEFFGLNNCSSSNRLDQAMQTTETQGMTHCCINPTTYAYVGEKFRNYLLVFFQKHIAKRFCKCCSIFQQEAPERASSVYTRSTGEQEISVGL
modifications: labelled with the dye DY647P1 in the MST assay (site not stated)
notes: Dye-labelled in MST; fusion partner in yeast 2-hybrid not described; also called 5NA-43; CCR5_SZ218a DY647P1
B3: SZ352a = CCR5QTY(352a) (receptor)
chain: MDYQVSSPIYDINYYTSEPCQKINVKQIAARQQPPQYSQTFTYGFTGNMQTTQTQINCKRLKSMTDIYLQNQAISDQYYQQTTPYWAHYAAAQWDFGNTMCQQQTGQYFTGYYSGTYYTTQQTTDRYLAVVHAVFALKARTTTYGTTTSTTTWTTATYASQPGTTYTRSQKEGLHYTCSSHFPYSQYQFWKNFQTLKITIQGQVQPQQTMVTCYSGTQKTLLRCRNEKKRHRAVRQTFTTMTTYYQYWAPYNTTQQLNTFQEFFGLNNCSSSNRLDQAMQVTETQGMTHCCTNPTIYAYVGEKFRNYLLVFFQKHIAKRFCKCCSIFQQEAPERASSVYTRSTGEQEISVGL
modifications: labelled with a dye in the MST assay (dye and site not stated for this variant)
notes: Full-length (352 aa) QTY variant of CCR5, used as control in MST; also called CC15-22; full-length (352 aa) CCR5^QTY variant

Key:
Rantes (CCL5) [1] = molecular target: T1, Rantes (CCL5) (UniProt P13501 24-91); assay: MST, run 3, technical repeat; run 3, second technical repeat
T1 construct: In the yeast 2-hybrid screen the ligand construct is not described
T1 sequence (looked up): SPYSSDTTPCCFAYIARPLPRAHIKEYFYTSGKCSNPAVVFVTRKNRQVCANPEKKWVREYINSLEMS
Method: (§1) Each run of assay systematically measures 16 capillaries with identical concentration of a non-full length CCR5^QTY variant, but different concentrations of Rantes (Prospecbio http://www.prospecbio.com/Rantes/) with 2 duplicate measurements (Technical repeat 1 and 2).
(§2) Briefly, serial dilution of the target molecule Rantes was prepared in buffer to match the final buffer conditions in the reaction mix. The highest concentration of target was 6.0 μM, and the lowest 184.0 pM. About 5 μl of each dilution step were mixed with 5 μl of the fluorescent molecule—a partial water-soluble […] variant of CCR5 (e.g., CCR5-SZ218a). The final reaction mixture, which was filled in capillaries, contained a respective amount of target molecule (max. conc. 3.0 μM, min conc. 92.0 pM) and constant 5 nM fluorescent molecule.
(§3) The samples were analyzed on a Monolith NT.115 Pico at 25° C., with 12% LED power and 80% Laser power. No sticking of the fluorescent interaction partner to the capillary walls was indicated in the capillary scan.

Rantes (CCL5) [2] = molecular target: T1, Rantes (CCL5); assay: MST (MicroScale Thermophoresis), labelled CCR5QTY variant constant, Rantes titrated (axis 0.01-10000 nM); left panel, fits of Tech. 1 and Tech. 2
Method: as §1, §2, §3

Rantes (CCL5) [3] = molecular target: T1, Rantes (CCL5); assay: MST, run 2, technical repeat; run 2, second technical repeat
Method: as §1, §2, §3

Rantes (CCL5) [4] = molecular target: T1, Rantes (CCL5); assay: MST, run 3, technical repeat; run 3, first technical repeat
Method: as §1, §2, §3

Rantes (CCL5) [5] = molecular target: T1, Rantes (CCL5); assay: MST, run 1, technical repeat; dye-labelled variant at 5 nM, Rantes titrated (FIG. 7); run 1, first technical repeat
Method: as §1, §2, §3

Rantes (CCL5) [6] = molecular target: T1, Rantes (CCL5); assay: MST (MicroScale Thermophoresis), labelled CCR5QTY variant constant, Rantes titrated (axis 0.01-10000 nM); right panel, fits of Tech. 1 and Tech. 2
Method: as §1, §2, §3

Rantes (CCL5) [7] = molecular target: T1, Rantes (CCL5); assay: MST, run 1, technical repeat; dye-labelled variant at 5 nM, Rantes titrated (FIG. 7); run 1, second technical repeat
Method: as §1, §2, §3

Rantes (CCL5) [8] = molecular target: T1, Rantes (CCL5); assay: MST, run 2, technical repeat; run 2, first technical repeat
Method: as §1, §2, §3

Rantes (CCL5) [9] = molecular target: T1, Rantes (CCL5); assay: MST, run 3, LED power 15%, technical repeat
Method: as §1, §2

Rantes (CCL5) [10] = molecular target: T1, Rantes (CCL5); assay: MST, run 2, technical repeat; dye-labelled variant at 5 nM, Rantes titrated
Method: as §1, §2, §3

Rantes (CCL5) [11] = molecular target: T1, Rantes (CCL5); assay: MST, run 1, technical repeat; dye-labelled variant at 5 nM, Rantes titrated
Method: as §1, §2, §3

Rantes (CCL5) [12] = molecular target: T1, Rantes (CCL5); assay: MST, run 1, rounded value of the two technical repeats
Method: as §1, §2, §3

Rantes (CCL5) [13] = molecular target: T1, Rantes (CCL5); assay: MST, run 2, rounded value of the two technical repeats (FIG. 6)
Method: as §1, §2, §3

Rantes (CCL5) [14] = molecular target: T1, Rantes (CCL5); assay: fluorescent MST (FIG. 5)
Method: as §1, §2, §3

Rantes (CCL5) [15] = molecular target: T1, Rantes (CCL5); assay: MST (FIG. 5)
Method: as §1, §2, §3

Binder | Kd (Rantes (CCL5) [1]) | Kd (Rantes (CCL5) [2]) | Kd (Rantes (CCL5) [3]) | Kd (Rantes (CCL5) [4]) | Kd (Rantes (CCL5) [5]) | Kd (Rantes (CCL5) [6]) | Kd (Rantes (CCL5) [7]) | Kd (Rantes (CCL5) [8]) | Kd (Rantes (CCL5) [9]) | Kd (Rantes (CCL5) [10]) | Kd (Rantes (CCL5) [11]) | Kd (Rantes (CCL5) [12]) | Kd (Rantes (CCL5) [13]) | Kd (Rantes (CCL5) [14]) | Kd (Rantes (CCL5) [15])
B1 | 54.9 nM | ~46 nM | 56.5 nM | 32 nM | 46.5 nM | ~48 nM | 51.8 nM | 27.4 nM | – | – | – | – | – | – | –
B2 | – | – | – | – | – | – | – | – | 86.9 nM and 94.6 nM | 80.2 nM and 83.2 nM | 74.5 nM and 76.2 nM | ~75 nM | ~80 nM | – | –
B3 | – | ~28 nM | – | – | – | ~32 nM | – | – | – | – | – | – | – | ~30 nM | 28 to 32 nM
